{"source": "the DeepSol protein solubility set", "assay": "soluble on expression in E. coli; label from the status in PepcDB or PDB records", "data": [{"sequence": "MGSDKIHHHHHHMSLDNHYDVDAALDKALKDDFLRKATRRATDRLRNNKLAITEELGNWEEWRQVGERIRNHVVENLDYYLDMLIENVEKNGGHVHLAKTPEDGVRIVQEIFQKHGFKSVIKSKSMITEEIHLNPVLEKDGIEVVETDLAEYIIQIADEPPSHIIVPAMHKTREQIAKLFEPIAGHPLESDTPTLTKFAREQLREKFLTSKIGITGCNFAVADTGTITMVTNEGNGRLTSTMPEVQITMMGMERIVPSYKELSVLLNLLARSATGQRLSVYTTMITPPKREGDIDGPKEWHLVILDHNRSEILGDEDFRSSLRCIRCGACFNVCPVYRQVGGHAYGSVYSGPIGVVITPLLEQNYEKWGHLPYYSSLCAACSEACPVRIPLQDLIVKHRDRKVLKGYTSGVEKKIFKYYGYYFSHPKTLSKFVRLGSKFQFILMRNGRIASGPPPLSNWTNSKTLPPVAKQMFRDQWPELEKKLKTMQRGDQ", "values": [{"measurement": "soluble on expression in E. coli", "value": "not soluble"}]}, {"sequence": "MLIEGANSHGSGILLQRHGNTYVILTAYHVIEKGGQYTVKTVDGQRYAVRPSSIRRLPSVDLATLEIESNRDYTLATLGNSGEAVEGMPVFVAGFPAQEASVLGGIYQFTEGRLTANASRPIQDGYALVYSNPTLPGMSGGPVLDENGRLIGIHGSADIASTLVQEGSGASTVFVKRGFNLGIPIHTYLGLATPSRQTTVLPALASMKAADYFLAAEVAFRRKNFAAAIENYSQAIARNPNYSEAYLGRAVAQIFALVPNQDFDQLGEELGTKYLSRLTQGNPLLKDAFPPNPPTPLLETFMRTMAERPGTIQPDIAKAIALNPQYTEAYGVSSFLNLLLGNFGNAIAESERALALRPNNSDLQMIHSLALFLSGDFRRSIAVFDRLITANPQNTDYHLLRGVAAFMMGDYALSRPSWTALTQLTPRNPMPFALRGVTYLLEENFKASLPDLRQAAELYRQQGDMQSYNQMMQAIRQIESRLEHHHHHH", "values": [{"measurement": "soluble on expression in E. coli", "value": "not soluble"}]}, {"sequence": "MSTSSVRFAFRRFWQSETGPKTVHFWAPTLKWGLVFAGFSDMKRPVEKISGAQNLSLLSTALIWTRWSFVIKPRNILLASVNSFLCLTAGYQLGRIANYRIRNGDSISQLCSYILSGADESKKEITTGR", "values": [{"measurement": "soluble on expression in E. coli", "value": "not soluble"}]}, {"sequence": "MTSDATHEEAVSLLQELGLKEYEAKCFVGLSRMSSGTAKGLSEVTDVPRTRVYDAVRILEAKGLVEVQHSSPQQFRAVPLSEATETLRDQYEERIERLQSALREMGRIEADNDEAELQEVWSLSGSDAIENRAAAISADATDEVVLVIGSEAVLTEPLIKQLNSLNPNADLIVGTGSASIRDRVEQEIPRATAFLSELDWLHSEMIPEEDAAVGRLLLVDRSTMLVSSINPQTGDEQAIFATGLRNGLIVIARRLLSQGVVEMTPLEQD", "values": [{"measurement": "soluble on expression in E. coli", "value": "not soluble"}]}, {"sequence": "MAVPEGNSWTYTAASASITAPAQLVGNVGELQGAGSAVIWNVDVPVTGEYRINLTWSSPYSSKVNTLVMDGTALSYAFAEATVPVTYVQTKTLSAGNHSFGVRVGSSDWGYMNVHSLKLELLGGLTIRSPANLEHHHHHH", "values": [{"measurement": "soluble on expression in E. coli", "value": "soluble"}]}, {"sequence": "MAHHHHHHMRLILLGAPGAGKGTQANFIKEKFGIPQISTGDMLRAAVKAGTPLGVEAKTYMDEGKLVPDSLIIGLVKERLKEADCANGYLFDGFPRTIAQADAMKEAGVAIDYVLEIDVPFSEIIERMSGRRTHPASGRTYHVKFNPPKVEGKDDVTGEPLVQRDDDKEETVKKRLDVYEAQTKPLITYYGDWARRGAENGLKAPAYRKISGLGAVEEIRARVRRAQVSE", "values": [{"measurement": "soluble on expression in E. coli", "value": "soluble"}]}, {"sequence": "MAHHHHHHMATSSHRTAMSSLSAAMKQYVQQAAEDDVVCAFGPDYFHGARTGACVGSLFSATLCWYTFRLLKEDQREVDFLAGLKHGQRNPHFSTWTLLRGLRTQPMLTTGCIALATTSAMKCIKCYLANQRCREFFTDDVQFHMISELSETDLDAAAFLSTVLHNANGCGVGARNALSTLREDRSEDQPSMSPAPTASASTSTVNGLLHTHSSRLDSKEFTLTHRAPTYYDGVAVAFLGSVLDCYLPQKPVQKYYNMRVGTW", "values": [{"measurement": "soluble on expression in E. coli", "value": "not soluble"}]}, {"sequence": "MSLKRSIHVQAFVYNEKKDEILIVRNRNLAWTFPGGHVETDQTMEEALASKVKEQTNIDIEIESILHCKERRATWEHVCTFVFRAKPVGEMATFSNDDNVFRVKWIPIPLADDLLPIDQLSLNELVRSEGVLYENEGHHHHHH", "values": [{"measurement": "soluble on expression in E. coli", "value": "soluble"}]}, {"sequence": "MKPRESMVRLKMFQVRGKRREIAQLEMMIAEFERMVLELEAQIVHEECKSGNSDVHHFAYSALARAARQRRDNLINSIRDLQLQKTNAEIALHEVTTELQRAQLLEARENGGVAGEKDIFMQSRSMTG", "values": [{"measurement": "soluble on expression in E. coli", "value": "not soluble"}]}]}
